Test: soluble on expression in E. coli; label from the status in PepcDB or PDB records

| Sequence | soluble on expression in E. coli |
| --- | --- |
| SYYHHHHHHLESTSLYKKAGLMSTPLQGIKVLDFTGVQSGPSCTQMLAWFGADVIKIERPGVGDVTRHQLRDIPDIDALYFTMLNSNKRSIELNTKTAEGKEVMEKLIREADILVENFHPGAIDHMGFTWEHIQEINPRLIFGSIKGFDECSPYVNVKAYENVAQAAGGAASTTGFWDGPPLVSAAALGDSNTGMHLLIGLLAALLHREKTGRGQRVTMSMQDAVLNLCRVKLRDQQRLDKLGYLEEYPQYPNGTFGDAVPRGGNAGGGGQPGWILKCKGWETDPNAYIYFTIQEQNWENTCKAIGKPEWITDPAYSTAHARQPHIFDIFAEIEKYTVTIDKHEAVAYLTQFDIPCAPVLSMKEISLDPSLRQSGSVVEVEQPLRGKYLTVGCPMKFSAFTPDIKAAPLLGEHTAAVLQELGYSDDEIAAMKQNHAI | soluble |
| MSLKGTYVLLLKLEESVALRYGKKASHLEPGYYAYVGSAMGGFFKRIPRYFLGSRKRHWHIDYLLDHAQIAGLIMFSGKRIEEEISNVLSYHFEGIEDFGASDLRVKTNLYHVDPDKLFSLLGGFRENRDIRRAQKHRGKQNQSGEGHHHHHH | soluble |
| MTSIRKWQVGESLPEVTLAPVSRLDLIKYAGASGDYNPIHTIDEEAKKAGLPGIIAHGMWTMGNLAKLFTPYYEEGFVQDYFVRFQSMVFLNDVITLKATVKEKDKKAIRFAVAAVNQHGKEVIKGEAVFSLYE | not soluble |
| DNDSAPKEPTGPVTLIFTDIESSTALWAAHPDLMPDAVATHHRLIRSLITRYECYEVKTVGDSFMIASKSPFAAVQLAQELQLCFLRLDWETNAVDESYREFEEQRAEGECEYTPPTASLDPEVYSRLWNGLRVRVGIHTGLCDIRYDEVTKGYDYYGRTSNMAARTESVANGGQVLMTHAAYMSLSGEDRNQLDVTTLGATVLRGVPEPVRMYQLNAVPGRNFAALRLDR | soluble |
| MSLKRVLAAEYVRMSTEHQKYSLDNQSEYIREYSLRNNITIIHTYNDAGKSGLNISGRPGLKALLDDVINKKITISAILVYDVSRFGRFQDADEAGHYSHLLRKNGVKIIYCAEPFSEEHPEMFMLGLSFSRHGAASYSRNLSEKVFLGQVNLIKRGYHQGGVAGYGLRRLLIDEHEGHHHHHH | not soluble |
| MTKIFAYAIREDEKPFLKEWEDAHKDVEVEYTDKLLTPETVALAKGADGVVVYQQLDYIAETLQALADNGITKMSLRNVGVDNIDMAKAKELGFQITNVPVYSPNAIAEHAAIQAARILRQDKAMDEKVARHDLRWAPTIGREVRDQVVGVVGTGHIGQVFMQIMEGFGAKVITYDIFRNPELEKKGYYVDSLDDLYKQADVISLHVPDVPANVHMINDESIAKMKQDVVIVNVSRGPLVDTDAVIRGLDSGKIFGYAMDVYEGEVGIFNEDWEGKEFPDARLADLIARPNVLVTPHTAFYTTHAVRNMVVKAFDNNLELVEGKEAETPVKVG | soluble |
| RKMFRALMPALEELTFDPSSAHPSLVVSSSGRRVECSEQKAPPAGEDPRQFDKAVAVVAHQQLSEGEHYWEVDVGDKPRWALGVIAAEAPRRGRLHAVPSQGLWLLGLREGKILEAHVEAKEPRALRSPERRPTRIGLYLSFGDGVLSFYDASDADALVPLFAFHERLPRPVYPFFDVCWHDKGKNAQPLLLV | soluble |
| MNVGYLCTYTPKELIDAAGFTPIRIFAGDMQISLATAHIQSYACSQARGSLERALRGELDVQAVVFTRCCDTLMRLADIWERNTDMRVYNIEFPTRVEERSKDYYFNELKDFVKVLEEWGGGVTLESLRESLKLYHELEEKLKRLFSLKPDYEAAKRVQEMNVREAIKFVDERLRKAESEGGKPRVLITGSVCPFVEVYTLFEEAGFALKDDICTGTRFFTFNTPPREIGSVDEGLRFLVDKYFEKAPCPTKHFPNDDRFKYILEMAKDCDGVVFLLLKFCEPHFYDYPQLKERLEEMGKKVLLLELEFPIASIEQLRTRIEAFYEVIA | not soluble |
| MGSDKIHHHHHHTVPTFYLFGLLIMHNAAQHNYVISLTTEQKRRKHITEEFGKQNIPFEFFDAITPDIIEETAKKFNITLDRSPKAKLSDGEIGCALSHIVLWDLALENNLNYINIFEDDIHLGENAKELLEIDYISDDIHVLKLEANGKMFFKQPKSVKCDRNVYPMTVKQSGCAGYTVTAKGAKYLLELVKNKPLDVAVDSLVFEDFLHFKDYKIVQLSPGICVQDFVLHPDNPFESSLQEGRDRVHGNQRKSSILEKIKNEFGRVKIKMFGKQVPFK | not soluble |
| MLYLNQKPEYSKYDIGDYTYSKVGPTIFSWNDETKLKIGKFCSLGEEVVFLLGGEHRADWITTYPFNALFGEGAHITGHPSSKGDIVVGNDVWIGYQSCISSGVTIGNGAIIGARSVITKDVPPYAIVAGNPAKFVRYRFPQETIDKLESLAWWDWDISVIKGAIPLLLSNKIDEFFTSPEKEST | not soluble |
| MGSDKIHHHHHHMTSPHSFSVTPIRTMADGTIKQIHPFTGTEVWTVPGRGNRPLSHPASTIVELSAHDHTSYCAFCSDNMLSTPPEKSRIIIDSSGDFDILPGALPGELSETTPEFRRVPNLFEIVSFDYWHQNFGFDMDSETAMRMAQYLAIPEGREHVLAIVRTRLSAAGEDPAHMTDGELLEKAPSYFAGGHDVIIGRRHFVDDATTSDQLASSGTLTVKEHEAFIRLTVDGIRDLYHRNRYAPYVVAFQNWLKPAGASFDHLHKQLVAIDERGRLIADELHHLRGNPNMYNELAVDYAGYHNLIIAENDHAVAFAGFGHRYPTIEIYSKSAIPEPWLQSDEEIQAMSNLIHACHAATGADVPCNEEWVHKPIDVDMPMPWHVMIKWRVSTLAGFEGGTKVYLNTLSPHKVRDRVVKEMYRLRDEELIASDLRIAMECSVERNSLKYNPLL | not soluble |
| MGSDKIHHHHHHMTKAVAETLESKAAKAAPMDRLWAENDDSRVTGDPSLVVDVAGFEGPLDLLLHLARTQKVDLARISILALVEQYLAFVETARALRLELAADYLVMAAWLAFLKSKLLIPKQPGEEGESGEELAAVLQFRLKRLEAMRDAAARLVNRNRLGRDVFARGMPEMVIIEKRNAYSASLYDLLTAYAQQRQKQAVTNVTIARRGVWSLKDARDILTRLIGSLRDWTALDSFLIRYMTSPEERRTAIASSFAATLELVRERKMDLRQDEVFAPIYLRDHRAPAIKAVEVAS | not soluble |
| VTTRQEKAAQTRRDLLDAARVVFERNGYLNATITDITTEAGKAAGSFYNHFDGKEALLLALADDIGDDADALITTSPDDLRNLGPHLAVFWQLQSRHRPVMAALRDAALVDPEFAQRMHDFGI | not soluble |
| SAKNAYTKLGTDDNAQLLDIRATADFRQVGSPNIKGLGKKAVSTVYNGEDKPGFLKKLSLKFKDPENTTLYILDKFDGNSELVAELVALNGFKSAYAIKDGAEGPRGWLNSSLPWIEPKKT | soluble |
| MTEIERKFLVATFPDGELHAVPLRQGYLTTPTDSIELRLRQQGTEYFMTLKSEGGLSRQEYEIQIDVTQFEMLWPATEGRRVEKTRYSGKLPDGQLFELDVFAGHLSPLMLVEVEFLSEDAAQAFIPPPWFGEEVTEDKRYKNKALALSIP | soluble |
| GKKTRSVKSCVGKEFCRFGTQYTTRLGIRLEKTFEYIDTPHKFKMGVSGCPRSCVESGVKDFGVISVENGYQIFIGGNGGTDVTVGKLLTTVETEDEVIQLCGALMQYYRETGVYAERTAPWLERMGFENVKNVLLNQ | not soluble |
| MGSDKIHHHHHHMRAPKISEGKINCKEDDNLKLTVLVDNNTILSNNPHFQDRYFLSEPGLSIFIEADGKKVLFDTGHTGIFLQNSEKMNLDLSDLDYLVLSHGHIDHTGGLKSLIDFYQNQGKTNLKDKPTLIAHPECFLSKIDSPWGEIGCGIPEAEITCHFQLQLSREPLWLTENLVFLGEIERSNDFENLTPLGKVHKNTEGQDDYILDDSALVYKGSKGLIIITGCSHAGICNITKYAQKVCRDERVIDIIGGLHLINPGPIQMEKTKEFLKNVAPQTIRACHCTSLRPKIALAESLNMEEVGTGLQLEYY | not soluble |
| MAHHHHHHMQSSISQEKLQLMQKNFNLVDLNKDGKIAAEEFKTLLRLLGQTKTEKEMDEMVDKHFEDAPIGEEQQQDAAEAADKGGANEGTPSTAKQLGGQKNTAKTAPNHDRIKNLIAKLNNSKDEDKKKNSPNGQINRTGDVYAKNELINKKKKHINFETFLRIFLETYEEPLSVDELITSFEFFDKEKSGYLDEEKVRFILKNSEERLADEDMKLFLNSLNLRDKDKIDYVMLAKRLKNVA | not soluble |
| MIRTIERIITSTGFSLQHSDNGEITGLFYHCKLSSAYQPVFEAARNNIIGQEARIRADLNGNGEIQLSPWHIFALAPDDEQLIKLDRLCRTIHALNFLDNITNKQMKLFVSVQPRLLESVKDDHGSAFEQILDIIGIRTSRIVIEIPVEANRDWRLLKRVIMNYRAHGYLISVNYSGTNNDRISELGKLYPNVIRIDARDLLRRSVLDPLIVTAHNQGADVLVGNIETSYQLTDAIHAGADLLQGNFLARYSRKADNMLTPFSWQIPDERNGYRFDNESLQENQPYRSI | not soluble |
| MGSDKIHHHHHHMNFEKIEQAYDLLLENVQTIQNQLGTNIYDAMIEQNAAYVANQHETDLVVNNNQTLKQLDLTKEEWRRAYQFLLIKANQTEPMQYNHQFTPDSIGFILSFLVDQLVPTQKVTVLEIGSGTGNLAQTILNASQKDLDYLGIEVDDLLIDLSASIADVMQADISFAQGDAVRPQILKESQVILGDLPIGYYPDDQIASRYQVASPNEHTYAHHLLMEQSLKYLEKDGFAILLAPNDLLTSPQSDLLKGWLQEQANIVAMIALPPNLFGKAAMAKSIFVLQKKAARSLTPFVYPLQSLQEPEAIQKFM | not soluble |
| MAHHHHHHMSRLKHVEWDEKNLEANAEYQRQHPVTIHITEPKTPYSYADGDDLEAEEEGLLKWDPAVNAKVKEIKEQIAGDFSDRPVAPIAKSGRPMLAEGTSTGELAQQQHQKEFRKMRKAVYADEGAMFKRALSHECKDEDDE | not soluble |
| MKRHIAMAAGALALALGAQAAHAGPTLDAVKKKGFVQCGLTDGVAGFSATNSKGEWEGMDVDICRAVAAAVFGDAGKFKGTALSTQQRFTALQSGEVDVLLRTVTLTQTRDTSLGLAAVAASFYDGQGVLVRKALGVKSAKELDEATICVQPGTTTELNLADWFRANGIKFTPVVIDKVTEVVRAFESGRCDAFTDDASQLAAVRATQVAKPDDFEILPERFSKEPLGPMVRQGDENWLGIVRWTLFALMEAEEYGITQQNVDEMLKSKNPNVLRILGVTPGAGKNMGLDEKWAYNAIKAVGNYSQIFERNVGKDSRLGLQRGVNALWSQGGAMYPWPIR | not soluble |
| MNKLRRQLSMNSLLIDTSNQPLSVALMQNDEVLAEITTDSKQNHSVQLMPAISQLFEQSKIAKQQLDAIIVAEGPGSYTGLRIGVTVAKTLAYALDVKLYGVSSLKALAATIDHTDKLLVPVFDARRQAVYTGIFQWQNGQLVTILEDQYMSIEALRAFLEDLNQPFIYIGKDTIKLQDELQGEVIAQLPNASVMYQLIDKPTDVHTFTPKYHKLAEAERNWINSQKNN | not soluble |

From the DeepSol protein solubility set
